In publication PMC10577170 (2023):

Tests used:
[1] = target: T1, CSPG4 (chondroitin sulfate proteoglycan 4) peptide on HLA-C*07:01 (human); assay: killing
T1 peptide: HIIFPHGSL

[2] = target: T2, CSPG4 (chondroitin sulfate proteoglycan 4) peptide on HLA-C*07:02 (human); assay: cytokine release
T2 peptide: HIIFPHGSL

[3] = target: T3, CSPG4 (chondroitin sulfate proteoglycan 4) peptide on HLA-C*07:02 (human); assay: cytokine release
T3 peptide: PHIIFPHGSL

B1: 2C/165 TCR (TCR)
alpha TRAV35*02 TRAJ34*01 CDR3: CAGSYNTDKLIF
beta TRBV3-1*01 TRBJ2-1*01 CDR3: CASSQGWTRNEQFF
B1: recognises [1]; no recognition [2]; no recognition [3].

B2: 11C/73 TCR (TCR)
alpha TRAV12-2*02 TRAJ45*01 CDR3: CAVNAAGGGADGLTF
beta TRBV28*01 TRBJ2-2*01 CDR3: CASSYDWGGELFF
B2: recognises [1]; no recognition [2]; no recognition [3].

B3: 2Cα-11Cβ cTCR (TCR)
alpha TRAV35*02 TRAJ34*01 CDR3: CAGSYNTDKLIF
beta TRBV28*01 TRBJ2-2*01 CDR3: CASSYDWGGELFF
B3: recognises [1].

B4: 11Cα-2Cβ cTCR (TCR)
alpha TRAV12-2*02 TRAJ45*01 CDR3: CAVNAAGGGADGLTF
beta TRBV3-1*01 TRBJ2-1*01 CDR3: CASSQGWTRNEQFF
B4: no recognition [1].
